Data reported in patent publication US20190248924A1.

Target: human CTLA-4Ig (R&D Systems) (human) (UniProt P16410)
Test: ELISA, human CTLA-4Ig immobilized on the plate, detection with anti-human Fab-HRP, OD450; unit taken from the x axis; fit value of a flat control curve, far beyond the range tested

Chain of UniProt P16410 (P16410 37-162): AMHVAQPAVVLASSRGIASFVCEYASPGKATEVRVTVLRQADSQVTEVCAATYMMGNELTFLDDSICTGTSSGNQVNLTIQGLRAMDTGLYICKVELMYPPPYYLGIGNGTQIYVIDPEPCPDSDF

EC50: 51.3 µM
Substance: hIgG Control (antibody)
